As usually defined, the EC50 is the concentration needed to bring the measured effect to its halfway point. As usually defined, the IC50 is the concentration needed to halve the response being measured. One may read the Kd as a measure of binding affinity in units of concentration. By koff is commonly meant a measure of how fast the partners let go of each other. Broadly, the kon is a measure of how fast the partners come together.

Assay [1] concerns the target T1, his-tagged human PVRIG (h-PVRIG-his) recombinant protein (human, UniProt Q6DKI7 41-171, limits assumed).
T1 construct: bought from Acrobiosystems; also called Human PVRIG-his; human PVRIG recombinant protein; not shown: his tag
T1 sequence (looked up): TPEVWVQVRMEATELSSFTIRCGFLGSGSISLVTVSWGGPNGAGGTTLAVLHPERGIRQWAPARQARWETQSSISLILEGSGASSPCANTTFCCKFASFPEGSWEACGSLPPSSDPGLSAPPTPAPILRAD
Briefly: ELISA, coated antigen. The method, then: (§1) A human, cynomolgus monkey, or mouse PVRIG protein (at a concentration of 1 μg/mL) was coated on a 96-well microplate at 100 μL per well, and incubated overnight at 4° C. The plate was washed three times with wash buffer at 250 μL per well. For each wash, the plate was shaken for 10 s to ensure adequate cleaning. A blocking solution (PBS+0.05% Tween20+1% BSA) was added at 300 μL/well, and the plate was incubated at room temperature for 1 h. The plate was washed three times with wash buffer at 250 μL per well. For each wash, the plate was shaken for 10 s to ensure adequate cleaning. Dilutions of the test anti-PVRIG antibodies were added at 100 μL/well. The plate was incubated at 37° C. for 1 h. The plate was washed three times with wash buffer at 250 μL per well. The […] anti-human IgG secondary antibody (Sigma, A8667) was added at 100 μL per well. The plate was incubated at 37° C. for 1 h. The plate was washed three times with wash buffer at 250 μL per well. TMB was added at 100 μL/well, and the plate was incubated in the dark for 15 min. 0.16 M sulfuric acid was added at 50 μL/well. The OD values at 450 nm were read by using a Thermo MultiSkanFc microplate reader, and the EC₅₀ values of the binding of the anti-PVRIG antibodies to PVRIG were calculated.
(§2) Binding of the humanized anti-PVRIG/TIGIT bispecific antibodies to human and cynomolgus monkey PVRIG and their blocking of the ligand of human PVRIG were detected according to the methods of Examples 4, 5 and 6.
For orientation: ELISA stands for enzyme-linked immunosorbent assay.

The target of assay [2] is T2, his-tagged cynomolgus monkey PVRIG (cyno-PVRIG-his) recombinant protein (cynomolgus monkey).
T2 construct: expressed in HEK293, purified by Ni-NTA; also called Monkey PVRIG-his; cynomolgus monkey PVRIG recombinant protein
T2 chain: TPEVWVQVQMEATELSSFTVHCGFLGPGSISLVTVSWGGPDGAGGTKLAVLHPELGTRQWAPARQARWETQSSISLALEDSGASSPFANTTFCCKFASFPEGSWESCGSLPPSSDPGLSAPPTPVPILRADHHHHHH
The assay can be described thus: ELISA, coated antigen. The procedure: as §1, §2

The target in assay [3] is cynomolgus monkey TIGIT recombinant protein (cynomolgus monkey, UniProt A0A7N9I9V4 89-209). The assay can be described thus: ELISA, coated antigen. The procedure: as §1
Chain of cynomolgus monkey TIGIT recombinant protein (A0A7N9I9V4 entry or part of it): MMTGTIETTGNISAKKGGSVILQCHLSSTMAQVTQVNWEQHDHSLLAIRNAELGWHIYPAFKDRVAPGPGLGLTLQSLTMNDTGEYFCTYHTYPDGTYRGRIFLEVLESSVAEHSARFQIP
(§3) Similarly to Examples 4, 5 and 6, the binding of humanized anti-PVRIG/TIGIT bispecific antibodies to human and cynomolgus monkey TIGIT and blocking of binding of human TIGIT to ligand were detected, where PVRIG protein was replaced with TIGIT and PVRL2 was replaced with PVR.

Assay [4] concerns the target T3, human PVRIG expressed on cells (human, UniProt Q6DKI7 41-326).
T3 construct: whole, on cells; also called Human PVRIG FACS; cells overexpressing human PVRIG
T3 sequence (looked up): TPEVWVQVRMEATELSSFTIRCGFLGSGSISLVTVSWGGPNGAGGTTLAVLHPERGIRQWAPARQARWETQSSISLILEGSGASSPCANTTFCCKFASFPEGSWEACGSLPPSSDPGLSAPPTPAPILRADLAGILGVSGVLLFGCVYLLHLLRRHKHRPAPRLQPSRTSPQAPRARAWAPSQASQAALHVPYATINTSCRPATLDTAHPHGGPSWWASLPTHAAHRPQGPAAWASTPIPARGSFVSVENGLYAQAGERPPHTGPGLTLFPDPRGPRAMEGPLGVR
Briefly: FACS, cells overexpressing target. The method, then:
(§4) The expression plasmid carrying human or cynomolgus monkey PVRIG gene sequence was transfected into HEK293 cells, and the over-expressing stable transfection monoclonal cell strain was obtained by antibiotic screening and infinite dilution. Overexpressing cells were seeded into a 96-well plate at 2×10⁵ cells/per well. The cells were centrifuged at 300 g for 5 min, the supernatant was then removed, 100 μL of the test antibody was added, and the mixture was incubated at 4° C. for 1 h. The mixture was centrifuged, the supernatant was removed, the plate was washed 3 times with 200 μL of wash buffer (PBS+2% FBS), and then 100 μL of an anti-human IgG secondary antibody (Invitrogen, A-11013) labeled with Alexa Fluor 488 diluted at 1:500 was added. The mixture was incubated at 4° C. for 1 h. The plate was centrifuged, and the supernatant was removed. The plate was washed 3 times with 200 μL of wash buffer (PBS+2% FBS). The cells were resuspended in 100 μL of PBS and tested on a flow cytometer (BD FACS Calibur or BD FACS Canto_II).
as §2
A general note: Flow cytometry measures light scatter and fluorescence of single cells or particles in a stream.

The target of assay [5] is T4, cynomolgus monkey PVRIG expressed on cells (cynomolgus monkey, UniProt A0A2K5WVV8 1-322).
T4 construct: whole, on cells; also called Monkey PVRIG FACS; cells overexpressing cynomolgus monkey PVRIG
T4 sequence: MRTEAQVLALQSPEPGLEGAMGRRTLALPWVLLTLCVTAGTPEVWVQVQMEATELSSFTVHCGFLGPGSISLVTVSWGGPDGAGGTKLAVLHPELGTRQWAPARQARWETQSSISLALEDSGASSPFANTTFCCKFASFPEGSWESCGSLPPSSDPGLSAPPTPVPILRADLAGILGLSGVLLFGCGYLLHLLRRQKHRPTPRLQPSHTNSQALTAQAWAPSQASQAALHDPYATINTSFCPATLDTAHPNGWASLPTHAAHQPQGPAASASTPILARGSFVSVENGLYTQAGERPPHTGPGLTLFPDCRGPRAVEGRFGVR
The assay can be described thus: FACS, cells overexpressing target. The procedure:
as §4, §2

Assay [6] addresses T5, cynomolgus monkey TIGIT expressed on cells (cynomolgus monkey, UniProt A0A7N9I9V4 89-312).
T5 construct: whole, on cells; also called cells overexpressing cynomolgus monkey TIGIT
Briefly: FACS, cells overexpressing target. The method, then: as §4, §3

For assay [7], the target named is T6, mouse IgG2a Fc-tagged human PVRIG (h-PVRIG-mIgG2a Fc) recombinant protein (human, UniProt Q6DKI7 41-171, limits assumed).
T6 construct: bought from Acrobiosystems; not shown: mouse IgG2a Fc tag
T6 sequence (looked up): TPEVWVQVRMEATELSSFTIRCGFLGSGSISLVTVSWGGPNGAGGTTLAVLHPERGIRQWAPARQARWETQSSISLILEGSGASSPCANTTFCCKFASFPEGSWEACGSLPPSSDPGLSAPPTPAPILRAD
The assay can be described thus: competition ELISA; human PVRIG coated, competitor human PVRL2. The procedure: The h-PVRIG-mIgG2a Fc protein (at a concentration of 1 μg/mL) was coated on the 96-well microplate at 100 μL per well, and incubated overnight at 4° C. The plate was washed three times with wash buffer at 250 μL per well. For each wash, the plate was shaken for 10 s to ensure adequate cleaning. A blocking solution was added at 300 μL/well, and the plate was incubated at room temperature for 1 h. The plate was washed three times with wash buffer at 250 μL per well. For each wash, the plate was shaken for 10 s to ensure adequate cleaning. 50 μL of diluted test anti-PVRIG antibody and 50 μL of his-tagged ligand PVRL2 were added to each well, and the plate was incubated at 37° C. for 1 h. The plate was washed three times with wash buffer at 250 μL per well. The HRP-labeled anti-his-tagged secondary antibody (Genscrpit) diluted at 1:2000 was added at 100 μL per well. The plate was incubated at 37° C. for 1 h. The plate was washed three times with wash buffer at 250 μL per well. TMB was added at 100 μL/well, and the plate was incubated in the dark for 15 min. 0.16 M sulfuric acid was added at 50 μL/well. OD values at 450 nm were measured using a Thermo MμtLtiSkanFc microplate reader, and the IC₅₀ values of the anti-PVRIG antibodies blocking the binding of PVRIG to PVRL2 were calculated.
as §2

Assay [8] deals with T7, human PVRIG antigen (AcroBiosystem, PVG-H52H4) (human, UniProt Q6DKI7 41-171, limits assumed).
T7 sequence (looked up): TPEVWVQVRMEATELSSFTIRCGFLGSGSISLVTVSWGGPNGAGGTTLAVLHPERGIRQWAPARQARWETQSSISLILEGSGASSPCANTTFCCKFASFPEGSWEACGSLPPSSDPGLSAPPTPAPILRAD
The assay can be described thus: SPR (Biacore X100), antibody captured on Protein A chip, 1:1 fit. The source says: The affinity of the humanized bispecific antibodies for human PVRIG, cynomolgus monkey PVRIG and human TIGIT was detected using Biacore. Humanized bispecific antibodies were each captured on a Protein A biosensor chip (GE lifesciences, 29127557) of a Biacore instrument (Biacore X100, GE), and then human PVRIG antigen (AcroBiosystem, PVG-H52H4), cynomolgus monkey PVRIG antigen (SEQ ID NO: 1), or human TIGIT antigen (AcroBiosystem, TIT-H52H3) at a series of concentration gradients each flowed over the chip surface. The reaction signals were detected in real time using a Biacore instrument (Biacore X100, GE) to obtain association and dissociation curves. The data obtained from the experiment were fitted using the (1:1) Binding model with the BiacoreX100 evaluation software 2.0 GE to obtain affinity values (see Table 31).

T5 sequence (A0A7N9I9V4 entry or part of it): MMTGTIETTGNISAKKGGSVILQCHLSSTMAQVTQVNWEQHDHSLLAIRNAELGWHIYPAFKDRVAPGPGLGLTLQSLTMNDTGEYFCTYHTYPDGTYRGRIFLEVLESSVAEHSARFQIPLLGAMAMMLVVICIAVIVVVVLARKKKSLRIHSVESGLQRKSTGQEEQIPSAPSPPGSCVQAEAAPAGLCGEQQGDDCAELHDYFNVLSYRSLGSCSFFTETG

B1: humanized anti-PVRIG/TIGIT bispecific antibody 1708-151H7 (bispecific antibody, human IgG4 S228P, kappa)
heavy: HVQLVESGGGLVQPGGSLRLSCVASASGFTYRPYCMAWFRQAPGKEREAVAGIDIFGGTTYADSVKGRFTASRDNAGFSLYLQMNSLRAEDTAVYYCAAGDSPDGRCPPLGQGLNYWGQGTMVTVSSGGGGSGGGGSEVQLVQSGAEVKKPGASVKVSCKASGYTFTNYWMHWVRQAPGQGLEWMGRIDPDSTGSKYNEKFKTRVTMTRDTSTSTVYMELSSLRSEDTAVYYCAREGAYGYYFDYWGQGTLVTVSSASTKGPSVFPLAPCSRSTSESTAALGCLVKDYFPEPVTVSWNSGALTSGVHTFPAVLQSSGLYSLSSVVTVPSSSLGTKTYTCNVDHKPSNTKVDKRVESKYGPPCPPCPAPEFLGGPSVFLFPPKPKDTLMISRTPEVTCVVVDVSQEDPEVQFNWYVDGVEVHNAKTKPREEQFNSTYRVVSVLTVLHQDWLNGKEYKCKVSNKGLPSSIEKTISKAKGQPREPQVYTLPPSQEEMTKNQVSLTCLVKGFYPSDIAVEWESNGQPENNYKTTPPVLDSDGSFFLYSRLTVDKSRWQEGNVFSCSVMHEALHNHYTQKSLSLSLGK
light: DIQMTQSPSSLSASVGDRVTITCRASENIYSYLAWYQQKPGKSPKLLIYNARTLAEGVPSRFSGSGSGTDFTLTISSLQPEDFATYYCQYHSGSPLPFGGGTKVEIKRTVAAPSVFIFPPSDEQLKSGTASVVCLLNNFYPREAKVQWKVDNALQSGNSQESVTEQDSKDSTYSLSSTLTLSKADYEKHKVYACEVTHQGLSSPVTKSFNRGEC
As to B1, the EC50 is 0.679 nM in assay [1]; 9.44 nM in assay [2]; 0.119 nM in assay [3]; 0.043 nM in assay [4]; 11.5 nM in assay [5]; 0.012 nM in assay [6]. Besides, the IC50 in assay [7] came out at 0.598 nM. In assay [8], this molecule registered a Kd of 0.125 nM. Also, in assay [8], the koff was 0.000757 s⁻¹. The molecule further yielded a kon in assay [8] of 6.06e+06 M⁻¹ s⁻¹.

The values are drawn from patent US20240376207A1 (JIANGSU HENGRUI PHARMACEUTICALS, published 2024).
